Experimental data reported in patent publication US7521540B2, “CYR61 compositions and methods” (Munin Corporation, priority 1996, dated 2009).

What was measured:
HUVE cells [1] = test: Fisp12 cell attachment assay, HUVE cells; assay type: cell-based, human; conditions: coating 20 μg/ml, HUVE cells
Description: (§1) The capacity of Fisp12 to affect cell adhesion was also investigated. Fisp12 cell attachment assays were performed essentially as described (Oliver et al., [1989]). 96-well immunological plates were coated for 16 hours at 4° C. with 20 μg/ml Cyr61, Fisp12 or fibronectim (Gibco BRL) in PBS containing 0.1 mg/ml BSA and blocked with 10 mg/ml BSA for 1 hour at room temperature. HUVE cells were plated at 10^4 cells/well in F12K media with 10% FBS (Hyclone Laboratories, Inc., Logan, Utah); NIH 3T3 fibroblasts were plated at 3×10^4 cells/well and Mv1Lu cells were plated at 5×10^4 cells/well in minimal essential medium (MEM) with 10% FBS. After 1 hour incubation cells were fixed, stained with methylene blue and quantified as described (Oliver et al., [1989]). Cell spreading was examined on cells plated on 100 mm polystyrene petri dishes coated with 2.5 ml of a 20 μg/ml solution of Cyr61, Fisp12 or fibronectin. 10^7 cells were plated on each dish and cell spreading was analyzed 90 minutes after plating by microscopy at 100× magnification.

NIH 3T3 fibroblasts = test: Fisp12/Cyr61 cell attachment and spreading, NIH 3T3; assay type: cell-based, mouse; conditions: for cell attachment to coated dishes: coating 20 μg/ml, NIH 3T3 fibroblasts
Description: Another embodiment of the invention is directed to the use of Cyr61 to mediate cellular attachment to the extracellular matrix. Induction of cellular adhesion was investigated using murine Cyr61, fibronectin, and bovine serum albumin (BSA). Immunological 96-well plates (Falcon brand) were coated with 50 μl of 0.1% BSA in PBS at 4° C. in the presence of 0-30 μg/ml concentrations of murine Cyr61 or fibronectin. After two hours exposure to the coating solution, non-diluted immune or pre-immune antisera (30 μl/well), or affinity-purified anti-Cyr61 antibodies were added. For some wells, the coating mixture was adjusted to 10 mM DTT or 100 mM HCl. After 16 hours incubation, the coating solution was removed and the well surface was blocked with 1% BSA in phosphate-buffered saline (PBS) for 1 hour at room temperature. HUVE cells were plated in Ham's complete F12K medium [GIBCO-BRL, Inc.; Ham, Proc. Natl. Acacd. Sci. (USA) 53:786 (1965)] at 5×10^3-10^4 cells/well. Cycloheximide was added to 100 μg/ml immediately before plating and monensin was added to 1 μM 14 hours before plating. After a 2-hour incubation at 37° C., the wells were washed with PBS and attached cells were fixed and stained with methylene blue. The attachment efficiency was determined by quantitative dye extraction and measurement of the extract absorbance at 650 nm. Oliver et al., J. Cell. Sci. 92:513-518 (1989).
as §1

HUVE cells [2] = test: Thymidine incorporation (mitogen potentiation), HUVE cells; assay type: cell-based, human
Description: Human umbilical vein endothelial cells were plated essentially as described above for 3T3 cells and exposed to a constant amount of murine Cyr61; controls received no Cyr61. Different plates were then exposed to different levels of bFGF, comprising a series of bFGF concentrations ranging from 0-10 ng/ml. […] At 1 ng/ml bFGF, however, HUVE cells increased their thymidine incorporation in the presence of bFGF to 6×10^2 cpm; in the presence of 1 ng/ml bFGF and murine Cyr61, HUVE cells incorporated 1.3×10^3 cpm. At 10 ng/ml bFGF, cells exposed to bFGF incorporated about 1.8×10^3 cpm thymidine; cells receiving 10 ng/ml bFGF and Cyr61 incorporated approximately 6.1×10^3 cpm.
The capacity of murine Cyr61 to potentiate the mitogenic activity of bFGF was verified by a thymidine incorporation assay involving HUVE cells and various combinations of bFGF, Cyr61, and anti-Cyr61 antibodies. Cells were plated and grown as described above. The following combinations of supplements (final plate concentrations noted parenthetically) were then pre-incubated for 1 hour before addition to individual plates: 1) pre-immune antiserum (3%); 2) bFGF (15 ng/ml) and pre-immune antiserum (3%); 3) pre-immune antiserum (3%) and Cyr61 (4 μg/ml); 4) pre-immune antiserum (3%), Cyr61 (4 μg/ml), and bFGF (15 ng/ml); 5) anti-Cyr61 antiserum (3%); 6) anti-Cyr61 antiserum and bFGF (15 ng/ml); 7) anti-Cyr61 antiserum (3%) and Cyr61 (4 μg/ml); and 8) anti-Cyr61 antiserum (3%), Cyr61 (4 μg/ml), and bFGF (15 ng/ml).
DNA synthesis for HUVE cells and NIH 3T3 fibroblasts was measured by thymidine incorporation as described previously (Kireeva et al., [1996]) with minor modifications. HUVE cells were grown in 24-well plates to a subconfluent state, serum-starved for 24 hours and treated with F12K medium containing 10% fetal bovine serum (FBS), 1 μCi/ml [^3H]-thymidine and 10 ng/ml basic Fibroblast Growth Factor (bFGF) (Gibco-BRL, Inc.) with various concentrations of Cyr61 and Fisp12 as indicated. NIH 3T3 fibroblasts were grown to subconlfluence, serum-starved for 48 hours, and treated with Minimal Essential Medium (MEM) containing 0.5% FBS, 1 μCi/ml [^3H]-thymidine, bFGF and various concentrations of Cyr61 or Fisp12. Thymidine incorporation into the trichloroacetic acid-insoluble fraction was determined after 24 hour incubation. Logarithmically grown mink lung epithelial cells (Mv1lu, CCL64) were treated with various concentrations of TGF-β1 (Gibco-BRL) and 2 μg/ml of Cyr61 or Fisp12 for 18 hours; [^3H]-thymidine was then added to 1 μCi/ml for 2 hours. Thymidine incorporation was determnined as described above.

[3] = Heparin binding assay (salt elution from heparin-Sepharose/agarose); conditions: for NaCl concentration of elution from heparin-Sepharose/agarose: increasing salt concentrations

Molecule	cell attachment to coated dishes (HUVE cells [1])	cell attachment to coated dishes (NIH 3T3 fibroblasts)	attachment of NIH 3T3 cells to murine Cyr61-coated surfaces (NIH 3T3 fibroblasts; method of b177)	thymidine incorporation, baseline (HUVE cells [2]; 0-0.1 ng/ml bFGF, presence or absence of Cyr61, 72 hours)	thymidine incorporation with bFGF and Cyr61 (HUVE cells [2]; 1 ng/ml bFGF)	thymidine incorporation with bFGF and Cyr61 (HUVE cells [2]; 10 ng/ml bFGF)	NaCl concentration of elution from heparin-Sepharose/agarose [3]	cell spreading (NIH 3T3 fibroblasts; dishes coated with 20 μg/ml, 90 minutes)	enhancement of FGF-induced DNA synthesis (HUVE cells [2]; HUVE-cells, bFGF 10 ng/ml)	peak elution from heparin agarose ([3]; metabolically labeled cell lysates) [M NaCl]
Cyr61: Cysteine-rich ECM signaling protein; murine sequence SEQ ID NO:2, recombinant from Baculovirus-infected Sf9 cells (protein, listed as Mus musculus) MSSSTFRTLAVAVTLLHLTRLALSTCPAACHCPLEAPKCAPGVGLVRDGCGCCKVCAKQLNEDCSKTQPCDHTKGLECNFGASSTALKGICRAQSEGRPCEYNSRIYQNGESFQPNCKHQCTCIDGAVGCIPLCPQELSLPNLGCPNPRLVKVSGQCCEEWVCDEDSIKDSLDDQDDLLGLDASEVELTRNNELIAIGKGSSLKRLPVFGTEPRVLFNPLHAHGQKCIVQTTSWSQCSKSCGTGISTRVTNDNPECRLVKETRICEVRPCGQPVYSSLKKGKKCSKTKKSPEPVRFTYAGCSSVKKYRPKYCGSCVDGRCCTPLQTRTVKMRFRCEDGEMFSKNVMMIQSCKCNYNCPHPNEASFRLYSLFNDIHKFRD	promoted the attachment	promoted the attachment	promoted the attachment of NIH 3T3 cells, though less effectively than fibronectin	approximately 4×10^2 cpm	1.3×10^3 cpm	approximately 6.1×10^3 cpm	0.8-1.0 M NaCl			
Fisp12: Cysteine-rich murine protein, SEQ ID NO:6, mouse ortholog of CTGF (protein, listed as Mus musculus) MLASVAGPISLALVLLALCTRPATGQDCSAQCQCAAEAAPHCPAGVSLVLDGCGCCRVCAKQLGELCTERDPCDPHKGLFCDFGSPANRKIGVCTAKDGAPCVFGGSVYRSGESFQSSCKYQCTCLDGAVGCVPLCSMDVRLPSPDCPFPRRVKLPGKCCKEWVCDEPKDRTAVGPALAAYRLEDTFGPDPTMMRANCLVQTTEWSACSKTCGMGISTRVTNDNTFCRLEKQSRLCMVRPCEADLEENIKKGKKCIRTPKIAKPVKFELSGCTSVKTYRAKFCGVCTDGRCCTPHRTTTLPVEFKCPDGEIMKKNMMFIKTCACHYNCPGDNDIFESLYYRKMYGDMA	promoted the attachment	promoted the attachment					0.2 to 0.6 M NaCl	promotes cell spreading	enhance DNA synthesis induced by fibroblast growth factor	0.4
